These results are taken from paper PMC4156074 (2014).

This experiment has as its target Full-length human plasma kallikrein, activated form (human, UniProt P03952 20-390; P03952 391-638). The experiment is described as follows: apparent Ki.

Full-length human plasma kallikrein, activated form, sequence (P03952 20-390, chain 1 of 2): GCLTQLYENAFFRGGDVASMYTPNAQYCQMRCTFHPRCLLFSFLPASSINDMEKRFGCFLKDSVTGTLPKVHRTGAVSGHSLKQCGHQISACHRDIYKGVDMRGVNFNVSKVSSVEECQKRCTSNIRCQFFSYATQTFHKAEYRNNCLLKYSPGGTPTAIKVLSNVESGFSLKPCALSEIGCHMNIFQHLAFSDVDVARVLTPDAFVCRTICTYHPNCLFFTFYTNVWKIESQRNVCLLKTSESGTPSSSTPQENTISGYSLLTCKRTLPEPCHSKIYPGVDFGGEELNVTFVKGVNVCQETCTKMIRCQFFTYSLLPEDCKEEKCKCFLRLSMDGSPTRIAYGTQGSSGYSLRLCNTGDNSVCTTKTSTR
Full-length human plasma kallikrein, activated form, sequence (P03952 391-638, chain 2 of 2): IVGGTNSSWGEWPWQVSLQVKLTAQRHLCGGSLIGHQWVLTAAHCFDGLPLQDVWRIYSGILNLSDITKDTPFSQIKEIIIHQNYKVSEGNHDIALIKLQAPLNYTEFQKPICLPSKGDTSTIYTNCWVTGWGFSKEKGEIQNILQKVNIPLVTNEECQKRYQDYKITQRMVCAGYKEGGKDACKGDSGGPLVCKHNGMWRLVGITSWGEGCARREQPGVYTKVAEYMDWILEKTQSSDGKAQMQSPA

B1: Fab M0162-A04 (lead Fab, parent of the affinity maturation) (Fab, V domains shown)
VH: EVQLLESGGGLVQPGGSLRLSCAASGFTFSHYIMMWVRQAPGKGLEWVSGIYSSGGITVYADSVKGRFTISRDNSKNTLYLQMNSLRAEDTAVYYCAYRRTGIPRRDAFDIWGQGTMVTVSS
VL: DIQMTQSPSTLSASVGDRVTITCRASQSISSWLAWYQQKPGKAPNLLIYKASTLESGVPSRFSGSGSGTEFTLTISSLQPDDFATYYCQQYNTYWTFGQGTKVEIK
With B1, the Ki amounted to 5.39 nM.
